Test results reported in patent US20230250154A1 (CYTONICS, published 2023).

T1: ADAMTS4 (human, UniProt O75173 213-685, limits assumed)
T1 sequence (looked up): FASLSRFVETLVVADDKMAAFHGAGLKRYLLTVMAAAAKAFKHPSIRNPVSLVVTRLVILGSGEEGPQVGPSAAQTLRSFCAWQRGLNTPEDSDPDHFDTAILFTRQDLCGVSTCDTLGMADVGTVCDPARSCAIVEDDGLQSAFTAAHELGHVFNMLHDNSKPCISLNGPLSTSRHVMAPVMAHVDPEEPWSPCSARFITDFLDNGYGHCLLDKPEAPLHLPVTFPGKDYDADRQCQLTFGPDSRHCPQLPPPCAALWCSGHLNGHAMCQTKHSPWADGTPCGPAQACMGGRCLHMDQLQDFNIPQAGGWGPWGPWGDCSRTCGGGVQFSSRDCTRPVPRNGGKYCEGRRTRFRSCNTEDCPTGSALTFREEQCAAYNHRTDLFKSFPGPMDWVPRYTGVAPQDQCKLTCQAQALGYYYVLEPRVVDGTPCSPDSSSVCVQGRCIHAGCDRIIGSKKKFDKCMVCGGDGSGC

T2: MMP2 (human, UniProt P08253 110-660, limits assumed)
T2 sequence (looked up): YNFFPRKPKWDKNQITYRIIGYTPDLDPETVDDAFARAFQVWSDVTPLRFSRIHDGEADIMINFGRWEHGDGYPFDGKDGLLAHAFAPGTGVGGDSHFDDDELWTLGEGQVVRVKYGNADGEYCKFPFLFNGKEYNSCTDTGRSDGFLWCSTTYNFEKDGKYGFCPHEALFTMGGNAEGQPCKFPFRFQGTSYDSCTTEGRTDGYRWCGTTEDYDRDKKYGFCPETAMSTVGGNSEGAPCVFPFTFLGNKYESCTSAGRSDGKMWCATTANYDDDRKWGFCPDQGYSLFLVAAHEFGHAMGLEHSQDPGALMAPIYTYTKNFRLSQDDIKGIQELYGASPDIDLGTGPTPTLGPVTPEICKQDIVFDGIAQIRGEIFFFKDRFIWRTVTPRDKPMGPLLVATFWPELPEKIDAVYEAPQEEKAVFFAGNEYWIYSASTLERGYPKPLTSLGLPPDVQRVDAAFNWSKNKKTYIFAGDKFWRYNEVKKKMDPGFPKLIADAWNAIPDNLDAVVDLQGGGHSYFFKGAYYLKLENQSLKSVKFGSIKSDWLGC

T3: MMP7 (UniProt P09237 95-267, limits assumed)
T3 sequence (looked up): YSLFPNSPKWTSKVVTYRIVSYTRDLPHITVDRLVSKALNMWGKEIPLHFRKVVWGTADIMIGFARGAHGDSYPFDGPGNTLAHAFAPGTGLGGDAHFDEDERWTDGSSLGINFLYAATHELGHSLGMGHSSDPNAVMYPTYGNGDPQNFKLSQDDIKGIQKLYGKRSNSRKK

T4: Cathepsin G (UniProt P08311 21-244)
T4 sequence (looked up): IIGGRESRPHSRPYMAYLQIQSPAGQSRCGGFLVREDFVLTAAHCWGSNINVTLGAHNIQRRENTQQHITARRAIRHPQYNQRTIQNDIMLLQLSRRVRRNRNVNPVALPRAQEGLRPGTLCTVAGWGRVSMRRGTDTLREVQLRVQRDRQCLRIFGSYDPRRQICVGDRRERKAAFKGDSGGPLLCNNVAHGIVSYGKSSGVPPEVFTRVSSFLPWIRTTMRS

T5: MMP1 (human, UniProt P03956 100-469, limits assumed)
T5 sequence (looked up): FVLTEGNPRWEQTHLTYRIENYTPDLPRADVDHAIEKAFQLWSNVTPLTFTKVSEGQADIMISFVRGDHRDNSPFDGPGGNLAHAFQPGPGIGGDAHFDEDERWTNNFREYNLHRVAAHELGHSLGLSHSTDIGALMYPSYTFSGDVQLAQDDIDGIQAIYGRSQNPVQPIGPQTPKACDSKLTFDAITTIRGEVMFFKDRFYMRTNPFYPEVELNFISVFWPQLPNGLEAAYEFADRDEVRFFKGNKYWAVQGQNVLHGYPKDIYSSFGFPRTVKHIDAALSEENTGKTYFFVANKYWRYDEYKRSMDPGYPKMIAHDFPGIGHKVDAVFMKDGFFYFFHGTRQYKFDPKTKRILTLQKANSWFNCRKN

T6: ADAMTS5 (human, UniProt Q9UNA0 262-622, limits assumed)
T6 sequence (looked up): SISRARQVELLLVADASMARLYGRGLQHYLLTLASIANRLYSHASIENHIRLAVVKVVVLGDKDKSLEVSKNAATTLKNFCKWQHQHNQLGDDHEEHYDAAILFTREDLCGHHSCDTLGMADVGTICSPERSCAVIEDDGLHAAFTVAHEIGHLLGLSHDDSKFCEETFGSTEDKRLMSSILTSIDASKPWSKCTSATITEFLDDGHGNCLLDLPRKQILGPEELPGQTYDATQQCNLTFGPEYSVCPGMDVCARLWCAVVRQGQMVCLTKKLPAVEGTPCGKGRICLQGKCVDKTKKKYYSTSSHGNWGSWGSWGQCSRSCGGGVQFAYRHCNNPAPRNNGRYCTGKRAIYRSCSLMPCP

B1: Variant A2M, bait region SEQ ID NO 21 (other)
chain: SVSGKPQYMVLVPSLLHTETTEKGCVLLSYLNETVTVSASLESVRGNRSLFTDLEAENDVLHCVAFAVPKSSSNEEVMFLTVQVKGPTQEFKKRTTVMVKNEDSLVFVQTDKSIYKPGQTVKFRVVSMDENFHPLNELIPLVYIQDPKGNRIAQWQSFQLEGGLKQFSFPLSSEPFQGSYKVVVQKKSGGRTEHPFTVEEFVLPKFEVQVTVPKIITILEEEMNVSVCGLYTYGKPVPGHVTVSICRKYSDASDCHGEDSQAFCEKFSGQLNSHGCFYQQVKTKVFQLKRKEYEMKLHTEAQIQEEGTVVELTGRQSSEITRTITKLSFVKVDSHFRQGIPFFGQVRLVDGKGVPIPNKVIFIRGNEANYYSNATTDEHGLVQFSINTTNVMGTSLTVRVNYKDRSPCYGYQWVSEEHEEAHHTAYLVFSPSKSFVHLEPMSHELPCGHTQTVQAHYILNGGTLLGLKKLSFYYLIMAKGGIVRTGTHGLLVKQEDMKGHFSISIPVKSDIAPVARLLIYAVLPTGDVIGDSAKYDVENCLANKVDLSFSPSQSLPASHAHLRVTAAPQSVCALRAVDQSVLLMKPDAELSASSVYNLLPEKDLTGFPGPLNDQDDEDCINRHNVYINGITYTPVSSTNEKDMYSFLEDMGLKAFTNSKIRKPKMCPQLEHGPTEGEARGSPRYLTAIPENFYGVSEDLVVQISELEGRGSPHTKLRKYFPETWIWDLVVVNSAGVAEVGVTVPDTITEWKAGAFCLSEDAGLGISSTASLRAFQPFFVELTMPYSVIRGEAFTLKATVLNYLPKCIRVSVQLEASPAFLAVPVEKEQAPHCICANGRQTVSWAVTPKSLGNVNFTVSAEALESQELCGTEVPSVPEHGRKDTVIKPLLVEPEGLEKETTFNSLLCPSGGEVSEELSLKLPPNVVEESARASVSVLGDILGSAMQNTQNLLQMPYGCGEQNMVLFAPNIYVLDYLNETQQLTPEIKSKAIGYLNTGYQRQLNYKHYDGSYSTFGERYGRNQGNTWLTAFVLKTFAQARAYIFIDEAHITQALIWLSQRQKDNGCFRSSGSLLNNAIKGGVEDEVTLSAYITIALLEIPLTVTHPVVRNALFCLESAWKTAQEGDHGSHVYTKALLAYAFALAGNQDKRKEVLKSLNEEAVKKDNSVHWERPQKPKAPVGHFYEPQAPSAEVEMTSYVLLAYLTAQPAPTSEDLTSATNIVKWITKQQNAQGGFSSTQDTVVALHALSKYGAATFTRTGKAAQVTIQSSGTFSSKFQVDNNNRLLLQQVSLPELPGEYSMKVTGEGCVYLQTSLKYNILPEKEEFPFALGVQTLPQTCDEPKAHTSFQISLSVSYTGSRSASNMAIVDVKMVSGFIPLKPTVKMLERSNHVSRTEVSSNHVLIYLDKVSNQTLSLFFTVLQDVPVRDLKPAIVKVYDYYETDEFAIAEYNAPCSKDLGNADYKDDDDKGASHHHHHH
B2: Variant A2M, bait region SEQ ID NO 20 (other)
chain: SVSGKPQYMVLVPSLLHTETTEKGCVLLSYLNETVTVSASLESVRGNRSLFTDLEAENDVLHCVAFAVPKSSSNEEVMFLTVQVKGPTQEFKKRTTVMVKNEDSLVFVQTDKSIYKPGQTVKFRVVSMDENFHPLNELIPLVYIQDPKGNRIAQWQSFQLEGGLKQFSFPLSSEPFQGSYKVVVQKKSGGRTEHPFTVEEFVLPKFEVQVTVPKIITILEEEMNVSVCGLYTYGKPVPGHVTVSICRKYSDASDCHGEDSQAFCEKFSGQLNSHGCFYQQVKTKVFQLKRKEYEMKLHTEAQIQEEGTVVELTGRQSSEITRTITKLSFVKVDSHFRQGIPFFGQVRLVDGKGVPIPNKVIFIRGNEANYYSNATTDEHGLVQFSINTTNVMGTSLTVRVNYKDRSPCYGYQWVSEEHEEAHHTAYLVFSPSKSFVHLEPMSHELPCGHTQTVQAHYILNGGTLLGLKKLSFYYLIMAKGGIVRTGTHGLLVKQEDMKGHFSISIPVKSDIAPVARLLIYAVLPTGDVIGDSAKYDVENCLANKVDLSFSPSQSLPASHAHLRVTAAPQSVCALRAVDQSVLLMKPDAELSASSVYNLLPEKDLTGFPGPLNDQDDEDCINRHNVYINGITYTPVSSTNEKDMYSFLEDMGLKAFTNSKIRKPKMCPQLEHGPEFRGVTEGEGEGIPENFYGVSEDLVVQISELEGRGSVEEPHTKLRKYFPETWIWDLVVVNSAGVAEVGVTVPDTITEWKAGAFCLSEDAGLGISSTASLRAFQPFFVELTMPYSVIRGEAFTLKATVLNYLPKCIRVSVQLEASPAFLAVPVEKEQAPHCICANGRQTVSWAVTPKSLGNVNFTVSAEALESQELCGTEVPSVPEHGRKDTVIKPLLVEPEGLEKETTFNSLLCPSGGEVSEELSLKLPPNVVEESARASVSVLGDILGSAMQNTQNLLQMPYGCGEQNMVLFAPNIYVLDYLNETQQLTPEIKSKAIGYLNTGYQRQLNYKHYDGSYSTFGERYGRNQGNTWLTAFVLKTFAQARAYIFIDEAHITQALIWLSQRQKDNGCFRSSGSLLNNAIKGGVEDEVTLSAYITIALLEIPLTVTHPVVRNALFCLESAWKTAQEGDHGSHVYTKALLAYAFALAGNQDKRKEVLKSLNEEAVKKDNSVHWERPQKPKAPVGHFYEPQAPSAEVEMTSYVLLAYLTAQPAPTSEDLTSATNIVKWITKQQNAQGGFSSTQDTVVALHALSKYGAATFTRTGKAAQVTIQSSGTFSSKFQVDNNNRLLLQQVSLPELPGEYSMKVTGEGCVYLQTSLKYNILPEKEEFPFALGVQTLPQTCDEPKAHTSFQISLSVSYTGSRSASNMAIVDVKMVSGFIPLKPTVKMLERSNHVSRTEVSSNHVLIYLDKVSNQTLSLFFTVLQDVPVRDLKPAIVKVYDYYETDEFAIAEYNAPCSKDLGNADYKDDDDKGASHHHHHH

Experiments:
Experiment in all cases: cell-based or functional assay
[1] = target: Elastase
[2] = target: T1, ADAMTS4
[3] = target: T2, MMP2
[4] = target: MMP13 (human, UniProt P45452 104-471, limits assumed)
[5] = target: MMP8 (human, UniProt P22894 101-467, limits assumed)
[6] = target: T3, MMP7
[7] = target: T4, Cathepsin G
[8] = target: T5, MMP1
[9] = target: MMP9 (human, UniProt P14780 107-707, limits assumed)
[10] = target: T6, ADAMTS5
[11] = target: MMP3 (human, UniProt P08254 100-477, limits assumed)
Chain of MMP3 (P08254 100-477 limits assumed): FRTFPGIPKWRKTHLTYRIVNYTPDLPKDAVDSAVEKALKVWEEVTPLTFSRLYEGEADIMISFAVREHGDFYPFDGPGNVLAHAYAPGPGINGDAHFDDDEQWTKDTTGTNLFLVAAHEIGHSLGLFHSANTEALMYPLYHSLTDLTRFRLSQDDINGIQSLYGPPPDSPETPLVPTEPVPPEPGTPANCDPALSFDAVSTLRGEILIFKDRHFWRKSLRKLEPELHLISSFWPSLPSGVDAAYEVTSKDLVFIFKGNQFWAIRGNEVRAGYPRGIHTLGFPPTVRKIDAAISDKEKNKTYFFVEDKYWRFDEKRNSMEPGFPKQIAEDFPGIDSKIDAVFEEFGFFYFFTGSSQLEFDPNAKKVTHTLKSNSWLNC

Chain of MMP8 (P22894 101-467 limits assumed): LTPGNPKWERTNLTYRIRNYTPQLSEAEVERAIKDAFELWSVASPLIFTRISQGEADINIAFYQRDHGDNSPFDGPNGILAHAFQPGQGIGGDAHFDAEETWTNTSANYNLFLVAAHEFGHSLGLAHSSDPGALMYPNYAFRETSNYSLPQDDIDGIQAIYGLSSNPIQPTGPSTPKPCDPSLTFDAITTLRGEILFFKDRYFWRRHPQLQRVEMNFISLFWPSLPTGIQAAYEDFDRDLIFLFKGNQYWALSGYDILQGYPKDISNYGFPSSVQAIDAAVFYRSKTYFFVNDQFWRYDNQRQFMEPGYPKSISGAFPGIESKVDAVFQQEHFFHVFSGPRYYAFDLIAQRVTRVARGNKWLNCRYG
Chain of MMP9 (P14780 107-707 limits assumed): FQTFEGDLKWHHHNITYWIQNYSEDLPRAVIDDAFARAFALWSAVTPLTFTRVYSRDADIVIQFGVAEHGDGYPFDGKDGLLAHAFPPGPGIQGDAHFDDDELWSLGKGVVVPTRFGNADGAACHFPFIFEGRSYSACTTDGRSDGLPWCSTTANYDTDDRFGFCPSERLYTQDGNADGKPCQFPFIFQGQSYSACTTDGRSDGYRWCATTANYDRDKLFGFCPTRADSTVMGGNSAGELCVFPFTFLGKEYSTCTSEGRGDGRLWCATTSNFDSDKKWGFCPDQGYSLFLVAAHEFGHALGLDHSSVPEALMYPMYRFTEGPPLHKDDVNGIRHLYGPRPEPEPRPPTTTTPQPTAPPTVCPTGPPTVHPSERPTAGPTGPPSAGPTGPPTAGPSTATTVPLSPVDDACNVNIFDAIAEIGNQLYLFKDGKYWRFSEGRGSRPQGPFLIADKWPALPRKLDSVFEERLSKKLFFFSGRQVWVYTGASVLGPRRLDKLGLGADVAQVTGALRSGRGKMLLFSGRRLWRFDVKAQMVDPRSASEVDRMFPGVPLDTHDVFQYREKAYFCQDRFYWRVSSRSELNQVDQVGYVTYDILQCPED

Binder | Protease Inhibition (% of WT) [1] | Protease Inhibition (% of WT) [2] | Protease Inhibition (% of WT) [3] | Protease Inhibition (% of WT) [4] | Protease Inhibition (% of WT) [5] | Protease Inhibition (% of WT) [6] | Protease Inhibition (% of WT) [7] | Protease Inhibition (% of WT) [8] | Protease Inhibition (% of WT) [9] | Protease Inhibition (% of WT) [10] | Protease Inhibition (% of WT) [11]
B1 | 59 % of WT | 68 % of WT | 66 % of WT | 46 % of WT | 39 % of WT | 94 % of WT | 58 % of WT | 84 % of WT | 45 % of WT | 217 % of WT | 26 % of WT
B2 | 124 % of WT | 201 % of WT | 37 % of WT | 100 % of WT | 64 % of WT | 170 % of WT | 117 % of WT | 119 % of WT | 41 % of WT | 246 % of WT | 122 % of WT
